Measured values published in the supplement of paper PMC10126150.
± gives the standard deviation of the averaged measurements.
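Note: ATP exposure 15 min at 22 °C before imaging.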

What follows are sequences tested on ATP (assay: switch fluorescence ratio, 500 uM ATP over buffer (Cy3 cluster intensity, sum of 5 cycles each) (fold (ratio)); higher = stronger signal-on switching upon ATP binding; sequences stand for … in TCGTCGGCAGCGTCAGATGTGTATAAGAGACAGTTTTTTTTTTTTTTTTTTTTTTTTT…TC). Details: aptamer strand: ATP DNA aptamer (quencher-CACCTGGGGGAGTATTGCGGAGGAAGG + anchor), 100 nM annealed; ATP concentration: 500 uM.
Procedure, shortened: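 Five buffer/ATP imaging cycles were run on Cy3-labelled switching-strand clusters on a modified Illumina MiSeq flow-cell, with NaOH stripping and re-annealing between cycles. In each cycle, clusters annealed to 100 nM quencher-labelled ATP aptamer were imaged in selection buffer, then after 15 min with 500 uM ATP at 22 °C. Per cluster, the fluorescence ratio is summed target-cycle over summed buffer-cycle Cy3 intensity, averaged per switch-domain sequence. Only clusters within 100-1000 RFU were kept.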
CGGTTGGGGA showed a switch fluorescence ratio of 0.985 ± 0.036.
CATGAAAAGT was tested, and the switch fluorescence ratio was 0.978 ± 0.047.
Work on CCGAGTGGAG yielded a switch fluorescence ratio of 1.083 ± 0.0024.
CGTTAGGGTA showed a switch fluorescence ratio of 0.9911 ± 0.003.
For GAGCTCCAGA, the switch fluorescence ratio was 1.0093 ± 0.00081.
ATCTTCTAAG gave a switch fluorescence ratio of 1.02 ± 0.03.
TAAGGGCCTT was tested, and the switch fluorescence ratio was 0.992 ± 0.026.
Work on AAAAATGGTT yielded a switch fluorescence ratio of 1.02 ± 0.014.
Sequence CCGATTGGTC has a switch fluorescence ratio of 1.117 ± 0.0062.
With AGGTCGGGAT the switch fluorescence ratio was 1 ± 0.045.
Work on TTTTAATTTC yielded a switch fluorescence ratio of 0.955 ± 0.14.
In the case of AAAGCACTTT, the switch fluorescence ratio is reported as 1.099 ± 0.0022.
For AAAGGAAATT, the switch fluorescence ratio was 1 ± 0.033.
For GGGAAAAGGA, the switch fluorescence ratio was 1.018 ± 0.0094.
Sequence GAGGTGCCTA has a switch fluorescence ratio of 0.991 ± 0.02.
With TTAATTCCGT the switch fluorescence ratio was 1.02 ± 0.032.
Work on CTTCTTCGGT yielded a switch fluorescence ratio of 1 ± 0.015.
For CAAGATTCGG, the switch fluorescence ratio was 0.986 ± 0.018.
With TATTATCGGA the switch fluorescence ratio was 0.996 ± 0.048.
Work on GTCGAAACAT yielded a switch fluorescence ratio of 1.04 ± 0.075.
ATTTGTATTC showed a switch fluorescence ratio of 1.03 ± 0.031.
TTATCAGGTT gave a switch fluorescence ratio of 1 ± 0.031.
AGGGCGACG gave a switch fluorescence ratio of 1.05 ± 0.079.
TTTGGGTCTC gave a switch fluorescence ratio of 0.998 ± 0.019.
GGGTTAATTT showed a switch fluorescence ratio of 1 ± 0.028.
ACATCATAAA was tested, and the switch fluorescence ratio was 0.988 ± 0.023.
TTATCCAGGA showed a switch fluorescence ratio of 1.006 ± 0.0093.
TTCGAAGTTG showed a switch fluorescence ratio of 0.999 ± 0.034.
ACTTATCAGG gave a switch fluorescence ratio of 1.04 ± 0.045.
CGCGGGCGGA showed a switch fluorescence ratio of 1.021 ± 0.0044.
AGCTGGCAGC was tested, and the switch fluorescence ratio was 1.009 ± 0.0012.
Sequence AGGGAGAACG has a switch fluorescence ratio of 0.961 ± 0.047.
TTTTGGGTTG showed a switch fluorescence ratio of 1.03 ± 0.076.
With ATCATAATGT the switch fluorescence ratio was 0.983 ± 0.032.
Work on TGAATAAGAG yielded a switch fluorescence ratio of 1.01 ± 0.026.
Sequence CCCAAGGGCA has a switch fluorescence ratio of 1.02 ± 0.051.
GGGCAAGTGT showed a switch fluorescence ratio of 1.06 ± 0.034.
With CTTAGGCCAC the switch fluorescence ratio was 0.99 ± 0.024.
For TTTGTTGGCA, the switch fluorescence ratio was 0.986 ± 0.024.
CTTAGTGCTT gave a switch fluorescence ratio of 0.973 ± 0.039.
AGGGCTACAG showed a switch fluorescence ratio of 1.013 ± 0.0054.
In the case of TAAAAGCAAT, the switch fluorescence ratio is reported as 2.1 ± 0.9.
With TTTACTGGCT the switch fluorescence ratio was 1.02 ± 0.0011.
AAGTAGTCCC showed a switch fluorescence ratio of 1.3 ± 0.39.
For TGCTGGCCTG, the switch fluorescence ratio was 1.01 ± 0.019.
ACTCCGTCTT showed a switch fluorescence ratio of 1.441 ± 0.0027.
GAGTACTAGT was tested, and the switch fluorescence ratio was 1.015 ± 0.0072.
With AGAATAGTCA the switch fluorescence ratio was 1 ± 0.037.
ATGCCAGGGA gave a switch fluorescence ratio of 1.01 ± 0.023.
GGGGCTGTGC was tested, and the switch fluorescence ratio was 0.976 ± 0.034.
For TGTTAGAACG, the switch fluorescence ratio was 1.02 ± 0.015.
For GTTGTTTCGT, the switch fluorescence ratio was 1 ± 0.017.
ATCGGGGCAT showed a switch fluorescence ratio of 0.98 ± 0.059.
In the case of TTACAGGGCT, the switch fluorescence ratio is reported as 1.037 ± 0.0038.
For TAGCTGGAGG, the switch fluorescence ratio was 0.998 ± 0.035.
With CGTGGAGGTA the switch fluorescence ratio was 0.985 ± 0.041.
AATATTTCAT showed a switch fluorescence ratio of 0.966 ± 0.025.
For CGACTCATAT, the switch fluorescence ratio was 1.52 ± 0.11.
In the case of CAAATGGTGG, the switch fluorescence ratio is reported as 1.02 ± 0.0022.
In the case of TGCCCCTTTT, the switch fluorescence ratio is reported as 0.98 ± 0.013.
In the case of CGAGGTGGGT, the switch fluorescence ratio is reported as 1.01 ± 0.049.
Work on TATTTGATGC yielded a switch fluorescence ratio of 1.02 ± 0.036.
For GGGCAGATGG, the switch fluorescence ratio was 0.988 ± 0.034.
Work on GCCGATAGGT yielded a switch fluorescence ratio of 1.08 ± 0.12.
AAAAGGAGGG was tested, and the switch fluorescence ratio was 0.999 ± 0.013.
In the case of AAAGGGGGGC, the switch fluorescence ratio is reported as 1 ± 0.057.
In the case of ATGATTTCTA, the switch fluorescence ratio is reported as 0.986 ± 0.024.
Sequence ATGTTCTCTG has a switch fluorescence ratio of 1.033 ± 0.0091.
TTGTTTTATT was tested, and the switch fluorescence ratio was 0.981 ± 0.038.
CTATTGTGGA was tested, and the switch fluorescence ratio was 0.999 ± 0.019.
In the case of TTATTAATGT, the switch fluorescence ratio is reported as 1.02 ± 0.021.
TTATGGGGAT gave a switch fluorescence ratio of 0.988 ± 0.019.
CTGATTAGGA gave a switch fluorescence ratio of 0.989 ± 0.017.
Work on TTTTAATGCA yielded a switch fluorescence ratio of 0.977 ± 0.018.
With TGGCTAGGAC the switch fluorescence ratio was 1.01 ± 0.04.
For CATTTATGCC, the switch fluorescence ratio was 1.17 ± 0.31.
In the case of GAGTTGGGCT, the switch fluorescence ratio is reported as 0.979 ± 0.012.
Work on AGAGGCTTAC yielded a switch fluorescence ratio of 1.04 ± 0.051.
In the case of GATGATGGTG, the switch fluorescence ratio is reported as 0.968 ± 0.011.
Work on GGTGGTACGT yielded a switch fluorescence ratio of 0.999 ± 0.022.
For TCGGGAAAAA, the switch fluorescence ratio was 0.991 ± 0.032.
In the case of CATCGAGAGG, the switch fluorescence ratio is reported as 1.01 ± 0.019.
Work on TACTAGGCAA yielded a switch fluorescence ratio of 1.21 ± 0.04.
For ATTAAAATAT, the switch fluorescence ratio was 1.12 ± 0.19.
In the case of ACGAGTTAGT, the switch fluorescence ratio is reported as 0.9933 ± 0.0045.
Sequence AAAATGGTTT has a switch fluorescence ratio of 0.994 ± 0.037.
CAGTGTGTGC showed a switch fluorescence ratio of 1.03 ± 0.015.
CACGCGGAGG gave a switch fluorescence ratio of 1.03 ± 0.039.
In the case of TCCTAGGTCT, the switch fluorescence ratio is reported as 1.009 ± 0.0029.
CCGTTTGCAG was tested, and the switch fluorescence ratio was 1.13 ± 0.15.
TAGGTAAAGT showed a switch fluorescence ratio of 0.981 ± 0.03.
TCCGGGGCAG showed a switch fluorescence ratio of 1.262 ± 0.0072.
With TGACAAAGA the switch fluorescence ratio was 1 ± 0.022.
ATTTTCGGCT gave a switch fluorescence ratio of 0.99 ± 0.0036.
For CCTGAGTGTA, the switch fluorescence ratio was 1 ± 0.024.
GATATGCTAC gave a switch fluorescence ratio of 1.2 ± 0.023.
AGCTAGCAG showed a switch fluorescence ratio of 1.042 ± 0.0036.
Work on ATTGAACCGG yielded a switch fluorescence ratio of 1.04 ± 0.012.
Work on AACCATTAGG yielded a switch fluorescence ratio of 0.9956 ± 0.0053.
ACAGGCTGGT was tested, and the switch fluorescence ratio was 1.02 ± 0.028.
Work on AACCGCCCTT yielded a switch fluorescence ratio of 1.27 ± 0.15.
Sequence TTGACGCGTG has a switch fluorescence ratio of 0.982 ± 0.023.
Work on AAGTAACTC yielded a switch fluorescence ratio of 1.03 ± 0.027.
Sequence TTCGGGGTCC has a switch fluorescence ratio of 0.99 ± 0.028.
Work on AAACAGGTTG yielded a switch fluorescence ratio of 1.05 ± 0.019.
For GCGTTGTGGA, the switch fluorescence ratio was 1.04 ± 0.02.
GACGAGGGGG showed a switch fluorescence ratio of 0.949 ± 0.11.
Work on ATGCCGGTGT yielded a switch fluorescence ratio of 0.996 ± 0.057.
For GTAAGTTGGG, the switch fluorescence ratio was 0.993 ± 0.024.
Work on ATACGGATGC yielded a switch fluorescence ratio of 1.06 ± 0.025.
Work on GGAGGTCTAC yielded a switch fluorescence ratio of 1.03 ± 0.014.
With TTTAGTGCTT the switch fluorescence ratio was 0.997 ± 0.03.
For CGGGACTCCG, the switch fluorescence ratio was 1.02 ± 0.0032.
With CACGGCCGAA the switch fluorescence ratio was 0.973 ± 0.013.
GTTGAATTAA was tested, and the switch fluorescence ratio was 0.985 ± 0.041.
TCTGGGTGGC was tested, and the switch fluorescence ratio was 0.996 ± 0.028.
AATAGTAGGG was tested, and the switch fluorescence ratio was 1.01 ± 0.017.
Work on CGGGAGGCCT yielded a switch fluorescence ratio of 1.01 ± 0.062.
Work on TGAGTGGGGC yielded a switch fluorescence ratio of 1.03 ± 0.025.
TGATTGGTGT gave a switch fluorescence ratio of 1.02 ± 0.011.
For CTAGCATCCG, the switch fluorescence ratio was 1.03 ± 0.016.
GAGGGAATTT gave a switch fluorescence ratio of 1.01 ± 0.021.
For TAAAACTTTT, the switch fluorescence ratio was 1.02 ± 0.043.
Sequence CTTAGATTCT has a switch fluorescence ratio of 0.993 ± 0.012.
Sequence GGGTTTTTCT has a switch fluorescence ratio of 0.99 ± 0.036.
CAACTCTTTT showed a switch fluorescence ratio of 0.998 ± 0.038.
Work on GAGGGATGGG yielded a switch fluorescence ratio of 0.975 ± 0.017.
Sequence AATATCATAC has a switch fluorescence ratio of 1.05 ± 0.021.
In the case of GTTGGGGTTT, the switch fluorescence ratio is reported as 1.01 ± 0.031.
In the case of CAACTGGGGC, the switch fluorescence ratio is reported as 1.06 ± 0.022.
For ATAGTGAAGT, the switch fluorescence ratio was 0.982 ± 0.019.
TGCTAGTACC showed a switch fluorescence ratio of 1.054 ± 0.0036.
TGGCTGTGGG gave a switch fluorescence ratio of 0.991 ± 0.016.
AGACGAGGAA showed a switch fluorescence ratio of 1.03 ± 0.058.
With AAAGGGCGAT the switch fluorescence ratio was 0.976 ± 0.011.
ATCACGTGAT showed a switch fluorescence ratio of 1.01 ± 0.023.
In the case of CAGTATCGGA, the switch fluorescence ratio is reported as 0.9814 ± 0.008.
GATTAGAGGG showed a switch fluorescence ratio of 0.9877 ± 0.0081.
Sequence TACCGGTCGG has a switch fluorescence ratio of 0.999 ± 0.019.
ATGCGGGGGG showed a switch fluorescence ratio of 1.01 ± 0.021.
Work on TCCTCGAGTA yielded a switch fluorescence ratio of 1.27 ± 0.027.
With TCGGATGTGG the switch fluorescence ratio was 1.01 ± 0.056.
TAGCATGCGG showed a switch fluorescence ratio of 1.01 ± 0.019.
Sequence GCATTTTGTT has a switch fluorescence ratio of 0.986 ± 0.019.
Work on CCGCCCTATT yielded a switch fluorescence ratio of 1.4 ± 0.024.
With GGCATAGCCC the switch fluorescence ratio was 0.954 ± 0.024.
Sequence TTTGACTTTT has a switch fluorescence ratio of 0.994 ± 0.028.
For AAGGGTTAT, the switch fluorescence ratio was 0.995 ± 0.017.
With AGGCATTGGC the switch fluorescence ratio was 0.997 ± 0.048.
ATTTAGGGGG showed a switch fluorescence ratio of 0.966 ± 0.02.
With AAATGTGGAA the switch fluorescence ratio was 0.994 ± 0.018.
Work on CAAGATGCTC yielded a switch fluorescence ratio of 1.43 ± 0.03.
ACGGGAGGGG showed a switch fluorescence ratio of 1.04 ± 0.048.
TATGCCGGGG was tested, and the switch fluorescence ratio was 0.988 ± 0.057.
Work on TATTTTTTTC yielded a switch fluorescence ratio of 1 ± 0.018.
For TGGCCCTTGG, the switch fluorescence ratio was 1 ± 0.054.
With ATAAAAACAT the switch fluorescence ratio was 1 ± 0.027.
